Assay: soluble on expression in E. coli; label from the status in PepcDB or PDB records

Sequence | soluble on expression in E. coli
MAHHHHHHMSSGRRDIIFFGSIAVSILGHEVHDEAVAPQLERQNARIKLHTTARAPYAKTEEVFGLDATSPLYEIHSADFKASPTSSLTPQRGAPHPRHHRQKAAFLPVMLKLAQDAAVEEVPSIEDQDGALLQLDSPTNNVDPAPSYASASVRIEVDMSRSGGDATPVGTKEVFLPSLNYLAIRDMCTVVRIPVWSNTIQRSETGDVDVAELDRRSPQPQRAGDDNSSSSSGVLGGVRDRNSRGDAVSGVALSVYAMVRVISLAEKVRLALEADDAVRCLLGLPDPVPGVSLALTQRGDAPYGAMPLTELYKHHRQFFGYYSNTIIKHSNVVTQRLAEAPRQREADASFPHRWNTLTVVDLRPALLGEDAFAPLLVTLAYCANLRALYADGNHLGDLTCARLSALFRRHRYLARVSLSKNTIHEAGGEHLLRLVRNNLRITSMPCQGNYFSDALRSRIEEVARRNASVIAQDPLNIFSASYDYLTDLSSLPNSLQQQGLRTWAMLSAAPVGDVDVMVRNFTTSTQRTLGDSPVVAMQRAKTALRARESFSLIPPAALAPFLNEIMRTVSVGVSRVLPDPLVRSLFSDMETVVAREQEQVEAQRRDELAGGSRDASLLPPEVCDAVGGAYTPPVDSETMYARSFVRIVVAALRGVALGTPWAEIAKVLEGIGRVHRDLGVMPEDYWLAVHIFMTSLRISCGAECYDADSASSFLGLLALAVRTAVGTDTVLQ | not soluble
MAHHHHHHMSSSEKKHAAWVDVVAGGFGGALAKSLLSPFQRIVVLQQLGQHKSYSIAQLVHHIYAQEGLKSFWRGNLTSMVIRVPYSGIQFLLYTQLKFLFQDWLDRRHAAAALPTHQADGSSDNS | soluble
MAHHHHHHMSSSSSGQYSGSGGNRGSGFVHLNTPASIQYTAGKTLSLSALRQSKSRVECAVLPESMSVWRDAFQRYSKEEGYSSFAADIEDERTGNGPILPPLVPQRAGPVRRRAGRALVRTDAFFCASSSPAPLGTSASTAHTGADRPPLTDGAAAISSTATAASASSSSRLSDKGTTATSADSVADGSTGPTAKQQQEGIPIVSHHKLLGRQQFVYPDYDGVLSAGVVPQIVVTAEEEAEEAAAKAFYISPLTMTEEELAAFEELQGLWKSRARSHSFLGAQHRKAAKGAVDPSSSADVLEAGGAGLPKVRRCEGVTGGASLSARRGNEIDVPAYAEAETAVEEESKLDKELSEALRMADDLLRFA | not soluble
MAHHHHHHMSSVKITLFQGKFRLDRLLGKGGFGEVYAGVQVSTGEPVAVKLERNKGRCFLFHEARVMQDIQNSMPGRTTPGIPELKYFGQEGDFRILIMSLLGPSLEDLHAKLGRFSLKTTVMLADEMLSRLEFIHSVGYIHRDLKPDNYLLGVGRNVRHLYLIDLGLSVRYRSTNGEHREMATGKSFVGTSRYASLRTHKGFSQSRRDDMEQLSYILIYLYRGHLPWSGLRMKDREAKEKAIGEIKQKLTTAQICSKCPSQFEDLLNYSRKLEFAESPQYEMCRILIASVLDTIGPNVKHDFQYDWVNVRKRDNSPPPPPPCIVTHERRATENKINLKKGNENGEKDAATIGSKIFCFFPGLSSSASQEMVLVNEK | not soluble
MAHHHHHHMTDEKKEEWIRRPYTRSIPVKLRSLAQLEESTVDATTQWYELLEQLVTETDVKGILQQTTKRKAARKLEELASQLRAVMQEMTAQSGRVVREGVDTQSFEQFCAWAGSTPSLQTTEASNGCTQMDKLCARVCMLCLCVAVILNDLELLICGMSFAESHKLLETYSRECEQRSVRQSNSIPDSGMEKGKNSEDVVLCSTVAHTLICGNDHNTFVPLADGDVLLACTLLYYLYTQDGPSASKSVMILERVLHCAEEVGYTSDVLDETGGYRIDFFYTISRMANWVETDNCPRLYQRIAHGFHGGSEVLVPFPPFVFLFTQVMLHMVVRRRLVEMQLQNVWRPVVTMDAAPVGCDGTAAETCSHVHPTVSSTSLCSAHGSKFFAVCLMLQRDCLSQYRSWPLPMELQKSFFC | not soluble
MAHHHHHHMTETTGARGRRTFMGRRRSQHEVQTEASFVPGCSSLEYAYDPLASEQYANLVELRQMIHSCLTLVAGDVYDVVSFKDILYHLESEMPSSLPVTDLLLLSSRLFRRTAELGRLLSCFFGVVFADDRNDEHFRFAEVRLLQREIRELKRQLSASEEERRRLKEMLDNVGQVAYDHGRAVELLETHNKVLKKQSTALEDQMALLFHQLNTGLEGHCKSAYQQVTGEMMVQESLNPARITFRQTMDSLSEQLRGSRGLITDVREVLLSCSQGRRTGEAYAAVEPTVRFKLKMLEANFQQLMGRFTAVKDTVVETAQELMNALQERKKILCLSFQHIRLYDLQNAKLRNARAILAQLQHNTSEVVRRIRVTFPSGNLTSVDRFGNIRTQRWHGGYTLATLRGYNLTEQQQQGEGEMSEVARSSTAVPSLTAGASRTLPGLTESQIMAAESEMAVIDGGVHSVTPVGLALSPGFRSMRASHSGVSPPPLRTSVPPSRGGSKLASARGSSSTTGMPAPVSAPTSVRSDDPDVLPFESVSTFVDLMHDIHDDMDELQSALVLDDEMAAFLKVLTLSASTTPRADALEIAGDPTGRAALLERQEYNMETALQPTGGRPGGTRGAPSSASVVSGNESITALEANSFSSLFSKMGTPSTSSEARGGARAENASSEAVMARQAVQLQRQQKQIAKMQEDFTSKVGFLRQVYEARIGDLEVRETTVSKRLGLVGGSAFQRGAGDGGSGRSSPGVRKGEDESPVSSSPGDKERLTKLRKEWRQSKRKLQPNRKLREATAEQLQLMQKDEKL | not soluble
MAHHHHHHMTMRRFGGALTRPLGGMRRVVVGPNGSVPEAGCVPTFETRRRKRLRLGGSLTGDWVASTESLSGSCVREEEARLLCFEKYGFVHKPLTMASWSDFLQELARFEFRWRLLPCVGGVTVLNIVERNCGDENVLCDLRTSCGSAPFAQFFECLGAFVQGTSEKRCIMFCDPNGLEQSLEIRAKRHLSPALGEGFEDEKPILPTLAQYDCRGTLVDLVLKDMKTDVLRPIISDISMQALNYAFLVSIPLFLRQADVGVRNTDLVSKEQMRHFRFAWCFLRRESMMTPVEIGELDTLLPP | not soluble
MAHHHHHHMTTLYDELYLLFDEYIVRNCKQPNTYESLFCKKEFVQFAKLHGTSVVVTSPKKEIKNKDEIIDELIYAFKLFAKYTSMCDFFSKNEEVDDINTIYLKFLLIPYILGVLCYETISMEIRSDRLKEAKLYFGEFINVVNVYKIAPVEDYLLDEGGEVNQAMNRRNIKVKRAKDEKKLQDFYDDMIKMNVKKGSSQNYNHLCFADHMEEEQIREIYLSLIKCKCLQTLNMMDLIDTEIEVLEMRNRQQVQDKQHQNGKPTQGTKDTHDGQPPHQNKHPKDGIKKPWLFTIKKNMPLADMTQMRNYYRDLVFTPAHNLPTISLEECAKIEMEYALKGEGMAPRSEEERRGNPKSGTIKGAAQNGTDDEEDYEKSSKEESEKELMDREWDDWKDMHQKGIGNKNRNVA | not soluble
MAHHHHHHMVDLLQRALANPFQDKLTFSPEDWDAHGLQPYQRCLREPFLRGCDTLVHKIRMQRIDFAKGILEQVVEDVQFRQKWGSLGEDYVTENAVQLTAYIFDSQERSLGGRRDPRKEDGAAQNIVYQPSTLSLGGDPALESLVTCVWFLRRDVLLLHQDFCYPVCEGRLTVFGRVQVALLRFYVRHAIKPRLLFLRQQHRGTLVVVELMMIGFAFCVERLMRPGLTCSGTVARRIRRVQGGTASSTSTGSGLVSGVHGEDSVAAASSGGGSAGGGGGGGGGGKLHCRPGRRRRWVVVM | not soluble
MAHHHHHHMVFNQDHHEKECADAFVLARDGMSDFEGEKIERAFRGVTAALRFLDYQETTGTSTRSPTGSNSNAEQRSSGSHEPLVSGEDTNYHHVVCLVRSLDGEKENTPVN | not soluble
MAHHHHHHMVKVKTISRSHLEWTKDRNGEVPRVNRNFDTKYNPMAKQTEFTRAIRAAKLDRMFAKPFVGALSGHHDTIQSVAVDYTSLSTVVSGAFDGGIIVWDVFTKRPKAIVDAHRHSVDGLVLSTDGVACFSASRDKVVKMWDLDFPSDDSKVEPLAEYLGEFPFSSIDHHFHKSIFVTSSDAVHLWDVNRTQPLQRFSWGDDTVSCCQFNKVETELVACCMSDRGVFIYDTRTKASHSKIIMEMCCTSVAWNPMDPNTFVTGSDDRNCYLFDMRVPGRPKSVFQGHINGITSVDFCPTGKKFVAGSLDATLRMWDIHQTTKSNSIEMYHTKRMAKVFSVKWSPDSSYIYSGSEDAILRVWKADASKPVRPLRGPERSSFNYMRSLKDRYSGFVEVRRIANQRNTPKAISRAQLRGKKAEKREFVKEASRRKHDDIKPLAQRKVYQSLN | not soluble
MAHHHHHHMVNQTPHIVILSYDEEKINKFVSFLMSTFEPLESYEKAETYKLTFDRNDFHSGNGSSFAFKEVAKVAIVNKYYSAEVTISSCVVQSGENALRVEGSMPNGGLPDEANLPNGGLPDEANTPKMDLPDGAKPELQNQANELDAKDILCESVIFLFNNFTKKEKNIVNGNPFRSYDEECVEYIKDPESQQMIRNTHFDFSNLYKDVGIKIAIFPSSLEKDNKDIVNFFSDYFIECLYINYESAFLAEGGGQDDGHPSCPEEGDQNVKEEKTLLREFEEQEDDERLVEALHCHMWKGLQIKRDHLIIQHRGDFPMGEAFKGDEAARKGEKTPQKDEASPNGEKTPQKDEAAPNGENPPQRDAPATSGAAKIDLSGTLANSAKTPEGQKEELFMENFNKIVEKIRVAKMENKNCSNHAARRKKAEEIIFELQQYFCDIDGE | not soluble
MAHHHHHHMVSAPQIRSIPCGSGDFSVMKRSLIARWQSGVHTPHGVVYRGAKMKNWPEQRIPENFKFTEEQRFRTKAIPRDVGTIPRNFVLGVLYRHQPCEVGGLWEHCTNDPEIVLDSKRHLREVLKQAREEGFVTFERDAISNEWLCFLTRERYEEVQRIVTAKSEAVDAHSGLRGAAATETSTYAEKFREMNVEAKEAHARRLEEEVANTTRYLRRFQQREIDYLPYTDLNGKVNFMWWYETRDVQQRADEVLTDSSSSKALAGEEEHKAGSQLEATTASTS | soluble
MAHHHHHHMVSMIVAGATGAIGRTVVQYAIQQPSIDRVVALTRFRNTAVSNYENLFGIIVAGEAGNTDSRGDGANSKRKKGSGSPAGTVTATPAEAAKIRPITMDWEEFTQLWVAKRSSTSAAASGADNCAAGAAATAITDPTERYRGIFGGHTYAAMCLGTTRKDAGSAKSFTRCDYDYVMAFTEAVLAYSAPAGLSPAKAFVHHIGDGGASKQVHVQEGMGKEVDVLAAMNANAAQSSGTLRVFCQVSSSNASSSSWFLYMQTKGIADESTVERVHRHNKCATAAAALSPVNLLLLQPGLLERHGKTRATEKFAKLIMSSIPVETCGAAIVSACKSLPIQHSVQRAETTSAAEQAKHDEVEGAQVEKENNTVAAGVRKTPLGKPYVATKALCKAGMPPNEPLPYIYAANNAVITDLASRLTA | not soluble
MAHHHHHHMVTGDMSTTVTGLDPHKMARRASRFVSSVKASTGTASSTGRTEMERYFENFASMDSAEGLETIGPKGIQHLCEDLAIKRDSFEMYTLIWKLGITRGGCIPRSDWLNMVYNYNIEVPVELKRRLREWVKDARGPSFVEFYSELYDYIRGDSARMMLPETAARAWDVLFRGDQQVAQWIRWYTGFYDCEVTRDIWRHVALFFNTGENATPYRKEDAWPTAFDLFAEWRETCETP | not soluble
MAHHHHHHMWGFEAYAEGLSATLNIHGAPLTGVAPQAGESAPLAPPRCLWKKNRNNYLFDAQGKLLSAAEAHSPTIWRTHHAFSGRCALVNPTAPATGGAAAQSFGAPGWAEQAWTAYQSWSVGFRLSSTTTDEPHILLSVAPAYFPNLVSATGEIRKADAATLASLPCAPSAEEEVIYNKRMLETPLIWEEPYALSVECTTHGVFLWSDHWGIFGRKIADRCLEVRQGEVRQSGIATLPSPGPSPSSAAADEELALVAYDAALRLRWSAAGPGSRSSTDGGSARAVAPTLSVELKTGGDAAAGGAAPTCEEKVGEELWQHLVDLPLSLDEVACKAAFRPYVTLMEGGDAVELL | not soluble

Source: the DeepSol protein solubility set
